The subject of one data set is platelets. As to the kind of experiment: Platelet agglutination and aggregation. It is filed as cell-based. An excerpt: It has been reported that Tie1 is expressed on platelets ([…] et al. (2000) J. Vasc. Res. 37(6):437). The possibility of platelet immunoreactivity with the E3 anti-Tie1 antibody was investigated by FACs analysis and immunoprecipitation studies. […] In addition, the effect of DX-2200 and DX-2210 on platelet agglutination and aggregation was investigated. Ristocetin, a cofactor that induces platelet agglutination by mediating the binding of von Willebrand factor (vWF) to platelet membrane glycoprotein GPIb (CD42), was used as a positive control for platelet agglutination.

A further data set has as its target T1, mouse Tie1 (Mus musculus, UniProt Q06806).
T1 construct: host or cells: MS1, Le-2, Bend3, SVEC
The data set can be described thus: Flow cytometry on mouse endothelial cell lines. The class given is binding. To be noted: MS1, Le-2, Bend3, SVEC, biotinylated antibody. The method, then:
We evaluated if E3 cross reacts with mouse Tie1 in situ and thus if we can evaluate E3 activity in mouse tumor xenograft models binding to mouse endothelial cells was tested and compared with human and transfected cell lines.
Specific binding of the Tie1 antibodies and of control Mabs to mouse endothelial cells was measured by flow cytometry analysis (FACSscan, Becton Dickinson, Oxnard, Epics, Coulter). Mouse endothelial cell lines MS1, Le-2, Bend3, SVEC (ATCC, Rockville) and Tie1 transfected Le-2 cells were stained. Cell staining was modified from existing protocols. About 200,000 cells were used in each experiment: after trypsinization, cells were washed one time in PBS and resuspended PBS, 10% heat inactivated human serum (incubation buffer). […] After the final incubation step bound antibodies were detected by means of flow cytometry on a FACSCan and Epics Altra (Becton Dickinson, Oxnard, Coulter) and results analyzed.
Intracellular Tie1 was measured as described above, except for the addition of Saponin to the incubation buffer to a final concentration of 0.1% during incubations. […] The binding pattern in mouse cell lines detected by flow cytometry is different from the binding pattern in HUVEC in that in mouse cells there is a greater cell surface staining than that compared to primary human endothelial cell lines. […]

The target of the next data set is T2, mouse Tie1 Fc (Mus musculus, UniProt Q06806).
T2 construct: both dimeric (Tie1-Fc fusion protein) and monomeric (Tie1-HIS) versions of the extracellular domain of the Tie1 were used
T2 sequence (Q06806 23-755 limits assumed): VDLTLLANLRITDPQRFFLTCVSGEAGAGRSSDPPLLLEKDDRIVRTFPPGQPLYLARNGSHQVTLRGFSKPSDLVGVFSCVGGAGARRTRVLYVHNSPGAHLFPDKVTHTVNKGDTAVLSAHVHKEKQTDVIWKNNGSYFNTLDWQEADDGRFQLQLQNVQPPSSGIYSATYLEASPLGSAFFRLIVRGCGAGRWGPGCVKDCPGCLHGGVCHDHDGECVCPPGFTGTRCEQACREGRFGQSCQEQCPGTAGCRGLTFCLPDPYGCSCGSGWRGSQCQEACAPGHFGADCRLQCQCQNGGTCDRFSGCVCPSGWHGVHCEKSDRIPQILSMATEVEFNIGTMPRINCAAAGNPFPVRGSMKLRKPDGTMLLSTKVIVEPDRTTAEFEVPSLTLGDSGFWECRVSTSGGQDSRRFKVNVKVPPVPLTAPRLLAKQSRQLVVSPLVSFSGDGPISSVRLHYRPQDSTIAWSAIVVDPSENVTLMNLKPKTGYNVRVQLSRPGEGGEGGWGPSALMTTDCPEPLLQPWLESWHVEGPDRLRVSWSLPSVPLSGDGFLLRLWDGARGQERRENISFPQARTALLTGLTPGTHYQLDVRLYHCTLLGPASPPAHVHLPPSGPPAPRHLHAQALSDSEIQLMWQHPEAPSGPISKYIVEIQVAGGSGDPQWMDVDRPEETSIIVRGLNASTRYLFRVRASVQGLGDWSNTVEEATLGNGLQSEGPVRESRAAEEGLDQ
The data set can be described thus: BIAcore, Fab over biotinylated mouse Tie1-Fc on streptavidin chip. It is filed as binding. To be noted: Fab analyte; for kon: 740 RU. As for the experimental part: Mouse Tie 1-Fc antigen (0.5 mg/ml stock) was biotinylated using established procedures and after dilution 1/100 fold in HBS this was then used for capturing to a streptavidin chip. This was coated to a resonance value of 740RU. All analysis was performed in HBS buffer. The parental Fab E3 0.587 mg/ml (11740 nM) was diluted 1/587 in HBS+BSA to obtain a stock of 20 nM and the germlined Fab E3 0.025 mg/ml (500 nM) was diluted 1/25 in HBS+BSA to obtain a stock of 20 nM. Serial dilutions were made of each Fab preparation to obtain 10 nM, 5 nM, 2.5 nM, and 1.25 nM. For the association phase samples were injected at 30 μl/min for 4 minutes using kinject program. This was followed by a 10 minutes dissociation phase, any remaining sample was stripped from the Tie1 Fc surface at a flow of 50 μl/min with a single injection of 50 mM NaOH+1 M NaCl for 18 seconds. All samples were run and analyzed in duplicate.
Sensorgrams were analyzed using the simultaneous ka/kd fitting program with 1:1 model in the BIAEVALUATION™ software 3.1.

Where two headings read alike, the source gives them in different places.

T1 sequence (Q06806 23-1134): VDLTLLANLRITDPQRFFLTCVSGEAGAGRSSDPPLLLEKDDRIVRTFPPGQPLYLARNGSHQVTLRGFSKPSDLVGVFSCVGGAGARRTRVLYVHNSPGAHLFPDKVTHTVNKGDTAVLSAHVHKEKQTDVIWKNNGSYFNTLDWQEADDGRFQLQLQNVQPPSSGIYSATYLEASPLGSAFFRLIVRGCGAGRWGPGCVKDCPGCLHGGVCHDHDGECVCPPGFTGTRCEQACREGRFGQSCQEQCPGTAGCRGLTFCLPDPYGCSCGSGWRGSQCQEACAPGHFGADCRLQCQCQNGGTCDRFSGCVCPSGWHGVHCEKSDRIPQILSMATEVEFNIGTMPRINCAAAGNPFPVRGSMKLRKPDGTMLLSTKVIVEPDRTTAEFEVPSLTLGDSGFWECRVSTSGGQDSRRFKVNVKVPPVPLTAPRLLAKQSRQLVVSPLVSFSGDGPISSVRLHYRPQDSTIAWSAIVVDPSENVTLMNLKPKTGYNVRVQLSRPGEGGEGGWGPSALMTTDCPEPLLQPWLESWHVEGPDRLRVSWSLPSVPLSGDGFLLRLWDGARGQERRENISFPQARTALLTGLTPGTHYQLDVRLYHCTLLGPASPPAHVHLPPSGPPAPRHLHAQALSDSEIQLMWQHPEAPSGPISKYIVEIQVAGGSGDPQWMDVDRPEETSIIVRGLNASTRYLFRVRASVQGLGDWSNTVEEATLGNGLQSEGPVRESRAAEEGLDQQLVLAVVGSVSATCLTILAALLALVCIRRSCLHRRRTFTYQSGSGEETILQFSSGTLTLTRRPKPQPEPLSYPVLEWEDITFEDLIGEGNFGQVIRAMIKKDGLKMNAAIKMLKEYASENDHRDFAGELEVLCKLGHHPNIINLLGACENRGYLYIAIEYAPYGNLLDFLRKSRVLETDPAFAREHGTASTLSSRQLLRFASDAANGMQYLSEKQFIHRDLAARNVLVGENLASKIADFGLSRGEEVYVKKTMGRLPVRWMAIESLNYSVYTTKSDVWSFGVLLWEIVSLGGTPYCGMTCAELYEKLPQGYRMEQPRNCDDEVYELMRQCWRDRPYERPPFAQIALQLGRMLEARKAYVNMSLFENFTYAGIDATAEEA

B1: E3: human anti-Tie1 antibody from phage Fab library, reformatted as IgG; HC variable SEQ ID NO:114, LC variable SEQ ID NO:116 (antibody, V domains shown)
VH: EVQLLESGGGLVQPGGSLRLSCAASGFTFSMYGMVWVRQAPGKGLEWVSVISPSGGNTGYADSVKGRFTISRDNSKNTLYLQVNSLRAEDTAVYYCARAPRGYSYGYYYWGQGTLVTVSSASTKGPSVFPLAPSSKSTSGG
VL: DIQMTQSPLSLSASVGDRVTITCRASQGIGHYLAWYQQKPGKVPKLLIYTASTLQSGVPSRFSGSGSGTDFTLTINSLQPEDVATYYCQQFNSYPHTFGQGTRLDIK
modifications: IgG constant regions; Synthetically generated peptide
As for B1, the “induction of platelet agglutination or aggregation” value with platelets (ristocetin and anti-CD9 as positive controls) is “Neither the DX-2200 nor its light chain germlined variant DX-2210 induced platelet agglutination or aggregation”. In addition, the “binding to mouse endothelial cell lines” value with mouse Tie1 was “binds to mouse endothelial cell lines”.

B2: DX-2210: E3 antibody in which the light chain has been germlined (antibody, V domains shown)
VH: EVQLLESGGGLVQPGGSLRLSCAASGFTFSMYGMVWVRQAPGKGLEWVSVISPSGGNTGYADSVKGRFTISRDNSKNTLYLQVNSLRAEDTAVYYCARAPRGYSYGYYYWGQGTLVTVSSASTKGPSVFPLAPSSKSTSGG
VL: DIQMTQSPSSLSASVGDRVTITCRASQGIGHYLAWYQQKPGKVPKLLIYTASTLQSGVPSRFSGSGSGTDFTLTISSLQPEDVATYYCQQFNSYPHTFGQGTRLEIK
Take B2: in the data set on platelets, the “induction of platelet agglutination or aggregation” value is on record as “Neither the DX-2200 nor its light chain germlined variant DX-2210 induced platelet agglutination or aggregation”. Also, the “binding to mouse endothelial cell lines” value with mouse Tie1 was “stained positively”.

B3: germlined E3 Fab: soluble Fab of E3 with LC framework regions germlined to DPK4; LC variable SEQ ID NO:159 (antibody, V domains shown)
VH: EVQLLESGGGLVQPGGSLRLSCAASGFTFSMYGMVWVRQAPGKGLEWVSVISPSGGNTGYADSVKGRFTISRDNSKNTLYLQVNSLRAEDTAVYYCARAPRGYSYGYYYWGQGTLVTVSSASTKGPSVFPLAPSSKSTSGG
VL: DIQMTQSPSSLSASVGDRVTITCRASQGIGHYLAWYQQKPGKVPKLLIYTASTLQSGVPSRFSGSGSGTDFTLTISSLQPEDVATYYCQQFNSYPHTFGQGTRLEIK
As to B3, in the data set with mouse Tie1 Fc, the off-rate constant (koff) came out at 0.00104 s⁻¹ and the on-rate constant (kon) is 340000 M⁻¹ s⁻¹.

B4: parental E3 Fab: soluble Fab fragment of the parental E3 anti-Tie1 antibody (antibody, V domains shown)
VH: EVQLLESGGGLVQPGGSLRLSCAASGFTFSMYGMVWVRQAPGKGLEWVSVISPSGGNTGYADSVKGRFTISRDNSKNTLYLQVNSLRAEDTAVYYCARAPRGYSYGYYYWGQGTLVTVSSASTKGPSVFPLAPSSKSTSGG
VL: DIQMTQSPLSLSASVGDRVTITCRASQGIGHYLAWYQQKPGKVPKLLIYTASTLQSGVPSRFSGSGSGTDFTLTINSLQPEDVATYYCQQFNSYPHTFGQGTRLDIK
B4: in the data set with mouse Tie1 Fc, the off-rate (koff) was 0.00095 s⁻¹ and the on-rate (kon) stood at 246000 M⁻¹ s⁻¹.

One may read the koff as the rate constant with which the complex falls apart. A high value points to fast dissociation. Broadly, the kon is a measure of how fast the partners come together. Read a low kon as slower complex formation.

Source of the values: US20100196361A1, “Method of inhibition of vascular development using an antibody” (DYAX CORP., priority 2003, published 2010).
